Source: paper PMC4539046 (Neuropharmacology, 2015)
Blank lines part the entries; values can stand above or below the binder they belong to. Where no end group is shown, it is not given here.

Key:
Test in all cases: AlphaScreen or HTRF
GST-PSD95(1–392) [1] = molecular target: T1, GST-PSD95(1–392) (UniProt P31016 1-392)
His-PSD95(1–392) = His-PSD95(1–392) (UniProt P31016 1-392)
GST-PSD95(1–392) [2] = molecular target: T1, GST-PSD95(1–392); remark: listed apart in the source

IC50 (GST-PSD95(1–392) [1]): 30 nM
B1: nNOS(1–130) without any tag (domain or fragment, UniProt P29476-1 1-130, looked up)
chain: MEENTFGVQQIQPNVISVRLFKRKVGGLGFLVKERVSKPPVIISDLIRGGAAEQSGLIQAGDIILAVNDRPLVDLSYDSALEVLRGIASETHVVLILRGPEGFTTHLETTFTGDGTPKTIRVTQPLGPPT

EC50 (His-PSD95(1–392)): 10 nM
B2: Biot-ErbB4(1289–1308) (peptide, UniProt Q15303 1289-1308, looked up)
peptide: SLKPGTVLPPPPYRHRNTVV
modifications: not fully specified (N-terminus); also: biotin (position not given here)

EC50 (GST-PSD95(1–392) [2]): 30 nM
B3: His-nNOS(1–299) (domain or fragment, UniProt P29476-1 1-299, looked up)
chain: MEENTFGVQQIQPNVISVRLFKRKVGGLGFLVKERVSKPPVIISDLIRGGAAEQSGLIQAGDIILAVNDRPLVDLSYDSALEVLRGIASETHVVLILRGPEGFTTHLETTFTGDGTPKTIRVTQPLGPPTKAVDLSHQPSASKDQSLAVDRVTGLGNGPQHAQGHGQGAGSVSQANGVAIDPTMKSTKANLQDIGEHDELLKEIEPVLSILNSGSKATNRGGPAKAEMKDTGIQVDRDLDGKSHKAPPLGGDNDRVFNDLWGKDNVPVILNNPYSEKEQSPTSGKQSPTKNGSPSRCPR
